# Test results: patent US20120164161A1 (AFFITECH RESEARCH, published 2012)
# Assays:
# [1] = target: T1, human CC chemokine receptor 4 (CCR4) (human, UniProt P51679 1-360); assay: flow cytometry on DT40 cells expressing human CCR4; scFv cross-linked with mouse anti-Myc antibody, detected with RPE anti-mouse IgG; MFI (PE-signal)
# T1 construct: whole, on cells; also called human CCR4; CD194
# T1 sequence (looked up): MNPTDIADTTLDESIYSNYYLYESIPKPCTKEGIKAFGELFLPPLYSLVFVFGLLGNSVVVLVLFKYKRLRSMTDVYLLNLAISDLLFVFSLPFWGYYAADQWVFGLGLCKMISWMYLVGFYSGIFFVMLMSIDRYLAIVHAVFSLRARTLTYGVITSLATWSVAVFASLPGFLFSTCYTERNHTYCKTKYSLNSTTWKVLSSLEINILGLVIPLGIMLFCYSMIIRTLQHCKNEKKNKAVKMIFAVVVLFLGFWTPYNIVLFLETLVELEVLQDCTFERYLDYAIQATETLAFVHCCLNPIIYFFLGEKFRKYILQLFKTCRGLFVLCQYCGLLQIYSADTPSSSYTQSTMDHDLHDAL
# Procedure: For the flow cytometry experiments, the cells were harvested from the culture flasks, washed 2 times with PBS, re-suspended in PBS with 0.2% BSA and 0.09% NaN3 and finally aliquoted 1×10^5 cells per well into V-shaped 96-well plates (Greiner Bio-One, Frickenhausen, Germany). Cells were centrifuged at 400×g for 5 min and then incubated at 4° C. for 60 min with different scFv dilutions.
# All scFv preparations were pre-incubated with a mouse anti-myc-antibody (9E10.2, Diatec, Oslo, Norway) to cross-link scFvs prior adding to the cells and diluted 3-fold, starting at a concentration of 10 μg/ml.
# After washing with PBS with 0.2% BSA and 0.09% NaN3, the cells were stained with 1 μg/ml of RPE-conjugated goat anti-mouse IgG (AbD Serotec, Duesseldorf, Germany) for 30 minutes at 4° C. The stained cells were washed, re-suspended in 200 μl PBS with 0.2% BSA and 0.09% NaN3 and transferred to a U-shaped 96-well plate (Corning, Schiphol-Rijk, The Netherlands) for acquisition on EasyCyte flow cytometer (Guava Technologies, Hayward, Calif., USA).
# [2] = target: T1, human CC chemokine receptor 4 (CCR4); assay: cell-based or functional assay
# [3] = target: T1, human CC chemokine receptor 4 (CCR4); assay: cell-based or functional assay; remark: listed apart in the source
# [4] = target: T2, monkey (Macaca mulatta) CCR4 (monkey (Macaca mulatta), UniProt F7GUA3 1-360); assay: flow cytometry on transiently transfected HEK-293T/17 cells, IgG 1 ug/ml (data not shown)
# T2 construct: also called monkey CCR4
# T2 sequence: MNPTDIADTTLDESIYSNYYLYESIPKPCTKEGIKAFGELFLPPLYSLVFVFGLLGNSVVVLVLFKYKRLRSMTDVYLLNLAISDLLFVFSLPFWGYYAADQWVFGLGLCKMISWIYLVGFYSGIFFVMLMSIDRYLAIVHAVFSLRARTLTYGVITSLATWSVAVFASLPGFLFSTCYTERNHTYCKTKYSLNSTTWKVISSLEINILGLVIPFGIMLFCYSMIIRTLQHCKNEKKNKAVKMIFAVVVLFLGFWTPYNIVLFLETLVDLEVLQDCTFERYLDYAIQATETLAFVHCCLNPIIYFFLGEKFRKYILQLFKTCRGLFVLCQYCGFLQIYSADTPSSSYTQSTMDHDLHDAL
# Procedure: (§1) For transient transfection, Hek293T/17 cells were seeded as 2×10^6 cells in a T75 (NUNC) flask. 48 h after seeding, the cells were transfected with Fugene (ROCHE). 40 μl Fugene and 16 μg DNA are used per T75. The cells were used for assays 48 h after transfection.
# (§2) Non-transfected (CCR4 negative) cells served as a negative control. The cells were cultivated further for 48 hours under regular conditions and harvested form flasks as described above. One times 10^5 cells per well were aliquoted into V-shaped 96-well plates (Greiner Bio-One, Frikenhausen, Germany). […] The samples were then washed twice by centrifugation and re-suspension in 150 μl FACS buffer. […] The samples were washed twice as described above and re-suspended in 250 μl FACS buffer followed by transfer into a U-shaped 96-well plate (Corning, Schiphol-Rijk, Netherlands) for flow cytometry on FACSCantoII (BD Biosciences, San Jose, Calif.).
# [5] = target: T1, human CC chemokine receptor 4 (CCR4); assay: flow cytometry on Hut78 cells (CCR4-positive); defucosylated IgG1, detected with RPE anti-human IgG; Median-PE [panel Hut78]
# Procedure: (§3) All cells were re-suspended in PBS with 0.2% BSA and 0.09% NaN3 and finally aliquoted 1×10^5 cells per well into V-shaped 96-well plates (Greiner Bio-One, Frickenhausen, Germany). Cells were centrifuged at 400×g for 5 min and then incubated at 4° C. for 60 min with different IgG dilutions. For binding in presence of human serum, CCRF-CEM cells were incubated with different IgG-solutions at either 10% or 50% of human serum (Sigma Aldrich, St Louis, Mo., USA) at 37° C. for 60 min.
# [6] = target: T1, human CC chemokine receptor 4 (CCR4); assay: flow cytometry on CCRF-CEM cells; defucosylated IgG1, detected with RPE anti-human IgG; Median-PE [panel CCRF-CEM]
# Procedure: as §3
# [7] = target: T3, mouse CCR4 (mouse, UniProt P51680 1-360); assay: flow cytometry on transiently transfected HEK-293T/17 cells, IgG 1 ug/ml
# T3 construct: whole, on cells; also called murine CCR4
# T3 sequence (looked up): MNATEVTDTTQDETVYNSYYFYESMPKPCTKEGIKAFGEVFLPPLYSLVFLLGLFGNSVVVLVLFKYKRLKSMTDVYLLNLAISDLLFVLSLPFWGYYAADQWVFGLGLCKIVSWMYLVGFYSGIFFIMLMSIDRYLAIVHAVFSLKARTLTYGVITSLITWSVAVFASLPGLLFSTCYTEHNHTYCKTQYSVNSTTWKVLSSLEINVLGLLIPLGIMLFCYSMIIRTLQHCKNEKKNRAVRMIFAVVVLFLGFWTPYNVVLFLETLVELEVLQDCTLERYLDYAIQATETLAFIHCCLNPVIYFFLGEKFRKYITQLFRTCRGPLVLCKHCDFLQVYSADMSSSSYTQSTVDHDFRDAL
# Procedure: as §1, §2
# [8] = target: T1, human CC chemokine receptor 4 (CCR4); assay: flow cytometry competition; IgG titrated from 5 ug/ml against fixed Alexa647 MDC-SNAP (50 nM); competitor MDC-SNAP
# [9] = target: T1, human CC chemokine receptor 4 (CCR4); assay: cell-based or functional assay; remark: listed apart in the source
# [10] = target: T1, human CC chemokine receptor 4 (CCR4); assay: cell-based or functional assay; remark: listed apart in the source
# [11] = target: T1, human CC chemokine receptor 4 (CCR4); assay: flow cytometry competition; IgG titrated from 2.5 ug/ml against fixed biotinylated TARC; competitor biotinylated TARC
# [12] = target: T1, human CC chemokine receptor 4 (CCR4); assay: cell-based or functional assay; remark: listed apart in the source
Binder,EC50 (read off the curve) [1] [µg/mL],IC50 of inhibition of TARC-mediated Ca-Flux in CCRF-CEM cells [2] [nM],"Inhibition of CCL17/TARC-induced migration of CCRF-CEM cells, IC50 [3] [nM]","Inhibition of CCL22/MDC-induced migration, Blockage of migration in % (IgG 10 µg/ml) [3] [%]",binding result [4],EC50 (read off the curve) [5] [nM],EC50 (read off the curve) [6] [nM],binding result [7],IC50 [8] [nM],"ADCC on CCRF-CEM cells with human PBMCs, EC50 [9] [nM]","ADCC on CCRF-CEM cells, Max. Killing (%; nM IgG) [9]","ADCC on L-428 cells with human PBMCs, EC50 [9] [nM]","ADCC on L-428 cells, Max. Killing (%; nM IgG) [9]","Inhibition of MDC (Ca-Flux), Blockage of signaling in % at 10 µg/ml IgG [10] [%]","Inhibition of TARC (Ca-Flux), IC50 [10] [nM]",IC50 [11] [nM],"IC50 of inhibition of CCL17/TARC-induced invasion of 786-O cells, CCL17/TARC 25 nM [12] [µg/mL]","IC50 of inhibition of CCL17/TARC-induced invasion of 786-O cells, CCL17/TARC 125 nM [12] [µg/mL]"
"603 scFv (scFv, not shown: small tags and cut ends, Expressed in TG1 bacteria; also called scFv 603; antibody 603 (single chain form)) scFv: QVQLVQSGAEVKKPGSSVKVSCKASGGTFSSYAMSWVRQAPGQGLEWMGGIIPIFGTVNYAQKFQGRVTMTRDTSTSTVYMELSSLRSDDTAVYYCARRRGAKFDYWGQGTLVTVSSKLSGSASAPKLEEGEFSEARVSYVLTQPPSASGTPGQSVTISCSGSTSNIGSHYVVWYQQLPGTAPRLLIYRNHQRPSGVPDRLSGSKSGTSASLAIGGLRSEDEADYYCAVWDDTLSGWVFGGGTKLTVL",~0.3,0.002,–,–,–,–,–,–,–,–,–,–,–,–,–,–,–,–
"IgG form of antibody 306 (defucosylated IgG1) (antibody, V domains shown, Human IgG1, lambda light chain; produced in presence of Kifunensine (defucosylated); Biotinylated via cysteines for the human serum experiment) VH: QVQLVQSGAEVKKPGSSVKVSCKASGGTFSSYAMSWVRQAPGQGLEWMGGIIPIFGTVNYAQKFQGRVTMTRDTSTSTVYMELSSLRPDDTAVYYCARRGGSYFDYWGQGTLVTVSS VL: SYVLTQPPSASGTPGQSVTISCSGSTSNIGSHYVSWYQQLPGTAPRLLIYRNHQRPSGVPDRLSGSKSGTSASLAISGLRSEDEADYYCAVWDAKYRGWVFGGGTKLTVLG",–,–,0.158,50,binds,~0.06,~0.06,binds,0.28,0.114,118 % (at 1.4 nM IgG),0.708,88 % (at 7 nM IgG),74,0.039,0.51,–,–
"IgG form of antibody 406 (defucosylated IgG1) (antibody, V domains shown, Human IgG1, lambda light chain; produced in presence of Kifunensine (defucosylated); Biotinylated via cysteines for the human serum experiment) VH: QVQLVQSGAEVKKPGSSVKVSCKASEGTFSSYAMSWVRQAPGQGLEWMGGIIPIFGTVNYAQKFQGRVTMTRDTSTSTVYMELSSLRSDDTAVYYCARRGGSYFDYWGQGTLVTVSS VL: SYVLTQPPSASGTPGQSVTISCSGSTSNIGSHYVSWYQQLPGTAPRLLIYRNHQRPSGVPDRLSGSKSGTSASLAISGLRSEDEADYYCAVWDAKYRGWVFGGGTKLTVLG",–,–,0.178,49,binds,~0.08,~0.2,binds,0.27,0.0999,121 % (at 1.4 nM IgG),0.704,78 % (at 7 nM IgG),74,0.028,0.94,–,–
"IgG form of antibody 503 (defucosylated IgG1) (antibody, V domains shown, Human IgG1, lambda light chain; produced in presence of Kifunensine (defucosylated); Biotinylated via cysteines for the human serum experiment) VH: QVQLVQSGAEVKKPGSSVKVSCKASEGTFSSYAMSWVRQAPGQGLEWMGGIIPIFGTVNYAQKFQGRVTMTRDTSTSTVYMELSSLRSDDTAVYYCARRRGAKFDYWGQGTLVTVSS VL: SYVLTQPPSASGTPGQSVTISCSGSTSNIGSHYVVWYQQLPGTAPRLLIYRNHQRPSGVPDRLSGSKSGTSASLAIGGLRSEDEADYYCAVWDDTLSGWVFGGGTKLTVLG",–,–,0.039,39,binds,~0.05,~0.02,binds,0.11,0.0053,108 % (at 1.4 nM IgG),0.233,93 % (at 7 nM IgG),64,0.013,0.87,0.12,1.33
